This assay has as its target recombinant flounder IL-2 receptor beta, GST-tagged (GST-rfIL-2Rβ) (flounder (Paralichthys olivaceus)).

“recombinant flounder IL-2 protein, His-tagged (His-rfIL-2) (ligand)”: the percentage of CD4-1+ T lymphocytes in cultured flounder PBLs (FCM, 72 h), PHA + rfIL-2 after blocking with anti-rfIL-2Rβ polyclonal antibodies (order of 'respectively' assumed) came out at 12.6%; the percentage of CD4-1+ T lymphocytes in cultured flounder PBLs (FCM, 72 h), PHA + rfIL-2 group without blocking antibodies is 19.2%; the percentage of CD4-1+ T lymphocytes in cultured flounder PBLs (FCM, 72 h), PHA + rfIL-2 with anti-rfIL-2 polyclonal antibodies (order of 'respectively' assumed) amounted to 7.2%; the percentage of CD4-2+ T lymphocytes in cultured flounder PBLs (FCM, 72 h), PHA + rfIL-2 after blocking with anti-rfIL-2Rβ polyclonal antibodies (order of 'respectively' assumed) came to 11%. The percentage of CD4-2+ T lymphocytes in cultured flounder PBLs (FCM, 72 h), PHA + rfIL-2 group without blocking antibodies worked out at 14.5%; the percentage of CD4-2+ T lymphocytes in cultured flounder PBLs (FCM, 72 h), PHA + rfIL-2 with anti-rfIL-2 polyclonal antibodies (order of 'respectively' assumed) was found to be 8.8%; the percentage of IL-2Rβ+ cells in cultured flounder PBLs (FCM, 72 h), PHA + rfIL-2 after blocking with anti-rfIL-2Rβ polyclonal antibodies was 17.8%; the percentage of IL-2Rβ+ cells in cultured flounder PBLs (FCM, 72 h), PHA + rfIL-2 group without blocking antibodies is 26.8%. Moreover, the percentage of IL-2Rβ+ cells in cultured flounder PBLs (FCM, 72 h), PHA + rfIL-2 with anti-rfIL-2 polyclonal antibodies was 13.3%.
